# In PMC3657149, “Mig6 Is a Sensor of EGF Receptor Inactivation that Directly Activates c-Abl to Induce Apoptosis during Epithelial Homeostasis” (Developmental Cell, 2012):
# B1: bacterially produced Mig6 (natural protein, UniProt Q9UJM3 1-462, looked up)
# chain: MSIAGVAAQEIRVPLKTGFLHNGRAMGNMRKTYWSSRSEFKNNFLNIDPITMAYSLNSSAQERLIPLGHASKSAPMNGHCFAENGPSQKSSLPPLLIPPSENLGPHEEDQVVCGFKKLTVNGVCASTPPLTPIKNSPSLFPCAPLCERGSRPLPPLPISEALSLDDTDCEVEFLTSSDTDFLLEDSTLSDFKYDVPGRRSFRGCGQINYAYFDTPAVSAADLSYVSDQNGGVPDPNPPPPQTHRRLRRSHSGPAGSFNKPAIRISNCCIHRASPNSDEDKPEVPPRVPIPPRPVKPDYRRWSAEVTSSTYSDEDRPPKVPPREPLSPSNSRTPSPKSLPSYLNGVMPPTQSFAPDPKYVSSKALQRQNSEGSASKVPCILPIIENGKKVSSTHYYLLPERPPYLDKYEKFFREAEETNGGAQIQPLPADCGISSATEKPDSKTKMDLGGHVKRKHLSYVVSP
# Biological target: immunopurified Abl (UniProt P00519-2 1-1149)
# Sequence (P00519 other isoform, or with tags, fused parts or gaps): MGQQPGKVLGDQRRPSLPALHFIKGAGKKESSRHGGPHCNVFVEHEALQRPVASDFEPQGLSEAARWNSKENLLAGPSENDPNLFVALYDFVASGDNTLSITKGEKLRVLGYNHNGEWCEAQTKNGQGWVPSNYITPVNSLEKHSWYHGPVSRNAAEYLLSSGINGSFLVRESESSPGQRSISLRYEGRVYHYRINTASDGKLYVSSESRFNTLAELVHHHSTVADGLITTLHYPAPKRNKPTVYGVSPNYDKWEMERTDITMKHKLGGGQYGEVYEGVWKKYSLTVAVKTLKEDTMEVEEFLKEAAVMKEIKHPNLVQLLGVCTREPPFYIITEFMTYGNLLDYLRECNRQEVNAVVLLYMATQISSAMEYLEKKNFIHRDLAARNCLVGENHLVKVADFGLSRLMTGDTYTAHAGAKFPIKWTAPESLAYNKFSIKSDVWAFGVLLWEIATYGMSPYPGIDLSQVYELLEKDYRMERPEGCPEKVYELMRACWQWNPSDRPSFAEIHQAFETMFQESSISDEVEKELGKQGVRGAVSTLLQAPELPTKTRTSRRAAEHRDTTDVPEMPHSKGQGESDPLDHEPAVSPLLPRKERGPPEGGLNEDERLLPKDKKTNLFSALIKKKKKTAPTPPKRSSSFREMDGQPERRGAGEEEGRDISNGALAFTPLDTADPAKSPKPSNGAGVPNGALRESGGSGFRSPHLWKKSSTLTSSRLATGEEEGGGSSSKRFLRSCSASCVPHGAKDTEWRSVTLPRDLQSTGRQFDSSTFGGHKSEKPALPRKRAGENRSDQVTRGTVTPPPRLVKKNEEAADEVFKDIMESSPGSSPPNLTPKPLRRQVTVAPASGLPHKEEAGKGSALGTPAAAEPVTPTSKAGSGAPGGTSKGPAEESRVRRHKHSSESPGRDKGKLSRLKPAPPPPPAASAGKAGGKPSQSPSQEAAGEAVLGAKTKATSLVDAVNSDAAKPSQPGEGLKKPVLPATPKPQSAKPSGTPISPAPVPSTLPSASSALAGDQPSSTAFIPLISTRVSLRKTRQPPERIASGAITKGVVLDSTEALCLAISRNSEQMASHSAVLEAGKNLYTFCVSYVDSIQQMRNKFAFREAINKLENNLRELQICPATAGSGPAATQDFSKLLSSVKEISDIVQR
# Test: cell-based or functional assay
binder,measurement,value
B1,activation (phosphorylation) of immunopurified Abl in the presence of bacterially produced Mig6,2.2 fold
